Data published in FireProtDB (doi:10.1021/bi00174a031).

B1: Phosphoglycerate kinase, P00560 (parent)
chain: MSLSSKLSVQDLDLKDKRVFIRVDFNVPLDGKKITSNQRIVAALPTIKYVLEHHPRYVVLASHLGRPNGERNEKYSLAPVAKELQSLLGKDVTFLNDCVGPEVEAAVKASAPGSVILLENLRYHIEEEGSRKVDGQKVKASKEDVQKFRHELSSLADVYINDAFGTAHRAHSSMVGFDLPQRAAGFLLEKELKYFGKALENPTRPFLAILGGAKVADKIQLIDNLLDKVDSIIIGGGMAFTFKKVLENTEIGDSIFDKAGAEIVPKLMEKAKAKGVEVVLPVDFIIADAFSADANTKTVTDKEGIPAGWQGLDNGPESRKLFAATVAKAKTIVWNGPPGVFEFEKFAAGTKALLDEVVKSSAAGNTVIIGGGDTATVAKKYGVTDKISHVSTGGGASLELLEGKELPGVAFLSEKK

Variants of: B1
Settings: Saccharomyces cerevisiae (strain ATCC 204508 / S288c), pH 7.5, 25 °C, GdnHCl, Sodium phosphate 20 mM, structure 3PGK, whole UniProt chain shown

Row | Variant | ddG of mutation (higher = less stable) (CD) [kcal/mol] | denaturant m value (CD) [kcal/mol/M] | denaturant midpoint (higher = more stable) (CD) [M] | unfolding free energy (CD) [kcal/mol] | ddG of mutation (higher = less stable) (Fluorescence) [kcal/mol] | denaturant m value (Fluorescence) [kcal/mol/M] | denaturant midpoint (higher = more stable) (Fluorescence) [M] | unfolding free energy (Fluorescence) [kcal/mol]
1 | MSLSSKLSVQDLDLKDKRVFIRVDFNVPLDGKKITSNQRIVAALPTIKYVLEHHPRYVVLASHLGRPNGERNEKYSLAPVAKELQSLLGKDVTFLNDCVGPEVEAAVKASAPGSVILLENLRYHIEEEGSRKVDGQKVKASKEDVQKFRHELSSLADVYINDAFGTAHRAHSSMVGFDLPQRAAGFLLEKELKYFGKALENPTRPFLAILGGAKVADKIQLIDNLLDKVDSIIIGGGMAFTFKKVLENTEIGDSIFDKAGAEIVPKLMEKAKAKGVEVVLPVDFIIADAFSADANTKTVTDKEGIPAGWQGLDNGPESRKLFAATVAKAKTIVFNGPPGVFEFEKFAAGTKALLDEVVKSSAAGNTVIIGGGDTATVAKKYGVTDKISHVSTGGGASLELLEGKELPGVAFLSEKK [W334F] | 3.93 | 8.4 | 0.63 | 5.38 |  |  |  | 
2 | MSLSSKLSVQDLDLKDKRVFIRVDFNVPLDGKKITSNQRIVAALPTIKYVLEHHPRYVVLASHLGRPNGERNEKYSLAPVAKELQSLLGKDVTFLNDCVGPEVEAAVKASAPGSVILLENLRYHIEEEGSRKVDGQKVKASKEDVQKFRHELSSLADVYINDAFGTAHRAHSSMVGFDLPQRAAGFLLEKELKYFGKALENPTRPFLAILGGAKVADKIQLIDNLLDKVDSIIIGGGMAFTFKKVLENTEIGDSIFDKAGAEIVPKLMEKAKAKGVEVVLPVDFIIADAFSADANTKTVTDKEGIPAGFQGLDNGPESRKLFAATVAKAKTIVFNGPPGVFEFEKFAAGTKALLDEVVKSSAAGNTVIIGGGDTATVAKKYGVTDKISHVSTGGGASLELLEGKELPGVAFLSEKK [W309F W334F] | 6.33 | 6.1 | 0.48 | 2.98 | 8.72 | 5.9 | 0.49 | 3.03
3 | MSLSSKLSVQDLDLKDKRVFIRVDFNVPLDGKKITSNQRIVAALPTIKYVLEHHPRYVVLASHLGRPNGERNEKYSLAPVAKELQSLLGKDVTFLNDCVGPEVEAAVKASAPGSVILLENLRYHIEEEGSRKVDGQKVKASKEDVQKFRHELSSLADVYINDAFGTAHRAHSSMVGFDLPQRAAGFLLEKELKYFGKALENPTRPFLAILGGAKVADKIQLIDNLLDKVDSIIIGGGMAFTFKKVLENTEIGDSIFDKAGAEIVPKLMEKAKAKGVEVVLPVDFIIADAFSADANTKTVTDKEGIPAGFQGLDNGPESRKLFAATVAKAKTIVWNGPPGVFEFEKFAAGTKALLDEVVKSSAAGNTVIIGGGDTATVAKKYGVTDKISHVSTGGGASLELLEGKELPGVAFLSEKK [W309F] | 3.63 | 8.4 | 0.67 | 5.68 | 3.71 | 12.8 | 0.63 | 8.04
